Consider 36 molecules from patent US20030162229A1.

Test [1] has as its target human recombinant 30 kDa inhibin A (human) (UniProt P05111). Description: RIA, iodinated human inhibin A tracer vs human recombinant inhibin A.
Test [2] has as its target antiserum As #41 (sheep polyclonal, raised to the alpha subunit of human inhibin). Description: RIA, competition with iodinated inhibin.
The target in test [3] is rabbit antiserum #1989. Nature of the test: RIA, competition with iodinated inhibin.
Test [4] deals with antiserum As #128 (sheep polyclonal, raised to the alpha subunit of human inhibin, boosted with human recombinant 30-kDa inhibin). Description: RIA, competition with iodinated inhibin.
Test [5] deals with rabbit antiserum #1989. Nature of the test: RIA, iodinated hr-inhibin tracer.
In test [6] the target is antiserum As #128 (sheep polyclonal, raised to the alpha subunit of human inhibin, boosted with human recombinant 30-kDa inhibin). Description: RIA, iodinated hr-inhibin tracer.
The target in test [7] is antiserum As #41 (sheep polyclonal, raised to the alpha subunit of human inhibin). Nature of the test: competitive 2-site assay, peptides incubated with iodinated As #41.
Test [8] has the same target. Description: inhibin IFMA; buffer on As #128, #30 on As #41.
Test [9] addresses antiserum As #128 (sheep polyclonal, raised to the alpha subunit of human inhibin, boosted with human recombinant 30-kDa inhibin). Description: two-site assay, peptide pre-incubated on As #128 coated plate, then hr-inhibin, biotinylated As #41.
The target is the same in test [10]. Nature of the test: inhibin IFMA; #20 on As #128, buffer on As #41.
The target of test [11] is antiserum As #41 (sheep polyclonal, raised to the alpha subunit of human inhibin). Nature of the test: inhibin IFMA; buffer on As #128, #5 on As #41.
Test [12] has as its target antiserum As #128 (sheep polyclonal, raised to the alpha subunit of human inhibin, boosted with human recombinant 30-kDa inhibin). Description: inhibin IFMA; #5 on As #128, buffer on As #41.
The target of test [13] is antiserum As #41 (sheep polyclonal, raised to the alpha subunit of human inhibin). Nature of the test: two-site assay, biotinylated As #41 pre-incubated with peptide, inhibin on As #128 plate.
Test [14] shares this target. Description: RIA, iodinated hr-inhibin tracer.
The target of test [15] is antibody pair of the (alpha)C IFMA: As #128 as coating antibody and As #41 as label. Nature of the test: inhibin IFMA; #5 on As #128 and #5 on As #41.

Where no end group is shown, it is not given here. The star is where a group is joined. Biotin = O=C1N[C@H]2[C@H](CS[C@H]2CCCCC(=O)*)N1

Regarding “R1 monoclonal antibody (Groome), inhibin (alpha)C subunit”, the ED25 (affinity for inhibin) in [1] was 1.6 nM.
For the molecule Biotin-SGSGPYSLLPGAQPCCAA (cysteine pairing not given here) [biotinylated peptide #24 (Set 1) of the human (alpha)C subunit], the ED50 in test [2] is 6200 nM; in the test with rabbit antiserum #1989 [3] it was above 2500 nM; in test [4], 900 nM.

B1: human recombinant 30 kDa inhibin A (ligand)
chain 1: STPLMSWPWSPSALRLLQRPPEEPAAHANCHRVALNISFQELGWERWIVYPPSFIFHYCHGGCGLHIPPNLSLPVPGAPPTPAQPYSLLPGAQPCCAALPGTMRPLHVRTTSDGGYSFKYETVPNLLTQHCACI
chain 2: GLECDGKVNICCKKQFFVSFKDIGWNDWIIAPSGYHANYCEGECPSHIAGTSGSSLSFHSTVINHYRMRGHSPFANLKSCCVPTKLRPMSMLYYDDGQNIIKKDIQNMIVEECGCS
Regarding B1, the ED50 was determined as 0.1 nM with rabbit antiserum #1989 [5] and 2 nM in test [6].
On to Biotin-SGSGPNLSLPVPGAPPTP [biotinylated peptide #20 (Set 1) of the human (alpha)C subunit], for which the ED50 in [2] is 3600 nM; with rabbit antiserum #1989 [3], above 2500 nM; in test [4], 20 nM.
In turn, Biotin-SGSGERWIVYPPSFIFHY [biotinylated peptide #14 (Set 1) of the human (alpha)C subunit] registered an ED50 in the test with rabbit antiserum #1989 [3] above 2500 nM.
Still for that read-out and setting: then Biotin-SGSGAAHANCHRVALNIS [biotinylated peptide #9 (Set 1) of the human (alpha)C subunit], with above 2500 nM; and Biotin-SGSGELGWERWIVYPPSF [biotinylated peptide #13 (Set 1) of the human (alpha)C subunit], with above 2500 nM.
For the molecule Biotin-SGSGLPGAQPCCAALPGT (cysteine pairing not given here) [biotinylated peptide #25 (Set 1) of the human (alpha)C subunit], the ED50 in test [2] is 5000 nM; with rabbit antiserum #1989 [3], above 2500 nM; in test [4] it was 2000 nM.
Biotin-SGSGSFIFHYCHGGCGLH (cysteine pairing not given here) [biotinylated peptide #16 (Set 1) of the human (alpha)C subunit] displayed an ED50 with rabbit antiserum #1989 [3] above 2500 nM.
On to Biotin-SGSGGAPPTPAQPYSLLP [biotinylated peptide #22 (Set 1) of the human (alpha)C subunit], for which the ED50 in test [2] is 5000 nM; in the test with rabbit antiserum #1989 [3] it was above 2500 nM; in [4], 156 nM.
As to Biotin-SGSGWSPSALRLLQRPPE [biotinylated peptide #5 (Set 1) of the human (alpha)C subunit], the results for the ED50 (in test [2]; in the test with rabbit antiserum #1989 [3]; in [4]) were 0.015 nM, above 2500 nM and 3800 nM, respectively. In test [7], this molecule had a % contribution (competition with inhibin) of 50%.
Regarding Biotin-SGSGSFKYETVPNLLTQH [biotinylated peptide #32 (Set 1) of the human (alpha)C subunit], the ED50 in test [2] is 290 nM; in the test with rabbit antiserum #1989 [3] it was above 2500 nM; in [4] it was 2500 nM.
Turning to Biotin-SGSGRTTSDGGYSFKYET [biotinylated peptide #30 (Set 1) of the human (alpha)C subunit], the ED50 in [2] is 2500 nM; with rabbit antiserum #1989 [3], below 10 nM; in [4], 600 nM. In [7], this molecule displayed a % contribution (competition with inhibin) of 50%.
As to Biotin-SGSGPLHVRTTSDGGYSF [biotinylated peptide #29 (Set 1) of the human (alpha)C subunit], the figures for the ED50 (in test [2]; in the test with rabbit antiserum #1989 [3]; in test [4]) were 5000 nM, above 2500 nM and 156 nM, respectively.
On the same counts, the results for Biotin-SGSGLQRPPEEPAAHANC [biotinylated peptide #7 (Set 1) of the human (alpha)C subunit] are 1250 nM, above 2500 nM and 1600 nM.
Consider Biotin-SGSGSTPLMSWPWSPSAL [biotinylated peptide #3 (Set 1) of the human (alpha)C subunit], for which the ED50 in the test with rabbit antiserum #1989 [3] was above 2500 nM; in [4], 38000 nM.
For the molecule Biotin-SGSGLHIPPNLSLPVPGA [biotinylated peptide #19 (Set 1) of the human (alpha)C subunit], the ED50 is 2100 nM in [2], above 2500 nM with rabbit antiserum #1989 [3] and below 10 nM in test [4].
On the same counts, the results for Biotin-SGSGALRLLQRPPEEPAA [biotinylated peptide #6 (Set 1) of the human (alpha)C subunit] are 26 nM, above 2500 nM and 1800 nM.
The molecule H-CSKKGRTTSDGGYSFKYET [non-biotinylated peptide #30 with NH2-Cys-Ser-Lys-Lys-Gly amino terminal spacer] had an ED50 with rabbit antiserum #1989 [5] of 2500 nM. Also, in test [8], the % suppression at 2ng inhibin turned out to be 28%.
In the test with rabbit antiserum #1989 [3], Biotin-SGSGVYPPSFIFHYCHGG [biotinylated peptide #15 (Set 1) of the human (alpha)C subunit] gave an ED50 above 2500 nM.
In the case of Biotin-SGSGTPAQPYSLLPGAQP [biotinylated peptide #23 (Set 1) of the human (alpha)C subunit], the ED50 is 6200 nM in [2], above 2500 nM in the test with rabbit antiserum #1989 [3] and 500 nM in test [4].
On the same counts, the results for Biotin-SGSGETVPNLLTQHCACI (cysteine pairing not given here) [biotinylated peptide #33 (Set 1) of the human (alpha)C subunit] are 4000 nM, above 2500 nM and 2500 nM.
On the same counts, the results for Biotin-SGSGDGGYSFKYETVPNL [biotinylated peptide #31 (Set 1) of the human (alpha)C subunit] are 2400 nM, above 2500 nM and 1400 nM.
As to Biotin-SGSGPEEPAAHANCHRVA [biotinylated peptide #8 (Set 1) of the human (alpha)C subunit], the ED50 with rabbit antiserum #1989 [3] is above 2500 nM; in [4], 4800 nM.
With Biotin-SGSGGTMRPLHVRTTSDG [biotinylated peptide #28 (Set 1) of the human (alpha)C subunit], the ED50 is 4000 nM in test [2], above 2500 nM in the test with rabbit antiserum #1989 [3] and 625 nM in test [4].
As for Biotin-SGSGMSWPWSPSALRLLQ [biotinylated peptide #4 (Set 1) of the human (alpha)C subunit], the ED50 in [2] is 1300 nM; in the test with rabbit antiserum #1989 [3], above 2500 nM; in test [4] it was 3800 nM.
In turn, Biotin-SGSGISFQELGWERWIVY [biotinylated peptide #12 (Set 1) of the human (alpha)C subunit] gave an ED50 with rabbit antiserum #1989 [3] above 2500 nM.
As for Biotin-SGSGGGCGLHIPPNLSLP [biotinylated peptide #18 (Set 1) of the human (alpha)C subunit], the ED50 is 1050 nM in [2], above 2500 nM with rabbit antiserum #1989 [3] and 60 nM in test [4].
On the same counts, the results for Biotin-SGSGAALPGTMRPLHVRT [biotinylated peptide #27 (Set 1) of the human (alpha)C subunit] are 5000 nM, above 2500 nM and 2000 nM.
On the same counts, the results for Biotin-SGSGHYCHGGCGLHIPPN (cysteine pairing not given here) [biotinylated peptide #17 (Set 1) of the human (alpha)C subunit] are 1050 nM, above 2500 nM and 10000 nM.
In the case of H-CSKKGPNLSLPVPGAPPTP [non-biotinylated peptide #20 with NH2-Cys-Ser-Lys-Lys-Gly amino terminal spacer], the ED50 in [6] stood at 150 nM. The % suppression in binding in test [9] came to 23%. Moreover, the % suppression at 2ng inhibin in [10] turned out to be 13%.
As for H-CSKKGWSPSALRLLQRPPE [non-biotinylated peptide #5 with NH2-Cys-Ser-Lys-Lys-Gly amino terminal spacer], the % suppression at 2ng inhibin stood at 67% in test [11], 55% in test [12] and 73% in test [15]. Moreover, the % inhibition (as a rule, the percentage by which the read-out fell short of the control) in test [13] came to 50%. The same molecule showed an ED50 in [14] of 0.4 nM. In test [9], the % suppression in binding came out at 65%.
Regarding Biotin-SGSGLPVPGAPPTPAQPY [biotinylated peptide #21 (Set 1) of the human (alpha)C subunit], the ED50 in test [2] is 1000 nM; with rabbit antiserum #1989 [3] it was above 2500 nM; in [4], 156 nM.
Take Biotin-SGSGNCHRVALNISFQEL [biotinylated peptide #10 (Set 1) of the human (alpha)C subunit]: the ED50 with rabbit antiserum #1989 [3] is above 2500 nM.
On the same count and under the same terms, the same measure for Biotin-SGSGVALNISFQELGWER [biotinylated peptide #11 (Set 1) of the human (alpha)C subunit]: above 2500 nM.
For Biotin-SGSGQPCCAALPGTMRPL (cysteine pairing not given here) [biotinylated peptide #26 (Set 1) of the human (alpha)C subunit], the ED50 is 1000 nM in [2], above 2500 nM with rabbit antiserum #1989 [3] and 625 nM in test [4].
